Data as given in patent publication US11466067B2 (priority 2019, dated 2022).

Tested on: polarized gut epithelial cells
Test: In vivo transcytosis across gut epithelium after intraluminal injection
Parameters: species or system Wistar rats
Details: luminal application, rat jejunum
Experimental: In vivo transcytosis was tested using male Wistar rats. Male Wistar rats were housed 3-5 per cage with a 12/12 h light/dark cycle and were about 225-275 g (approximately 6-8 weeks old) when placed on study. Experiments were conducted during the light phase using a non-recovery protocol that uses continuous isoflurane anesthesia. A 4-5 cm midline abdominal incision that exposed mid-jejunum regions was conducted. Stock solutions at 3.86×10^−5M of delivery construct were prepared in phosphate buffered saline (PBS), with 50 μL (per 250 g rat) being administered by intraluminal injection (ILI) using a 29-gauge needle. The injection site mesentery was then marked with a permanent marker. At study termination, a 3-5 mm region that captured the marked intestine segment was isolated and processed for microscopic assessment. The in vivo experiments were performed in accordance with the U.K. Animals (Scientific Procedures) Act of 1986, the European Communities Council Directive of 1986 (86/609/EEC).

B1: IL-10 delivery construct: recombinant homodimeric fusion protein: N-terminal methionine, cholix386 domain, polyGlySer spacer, recombinant human IL-10 (protein)
chain: MVEEALNIFDECRSPCSLTPEPGKPIQSKLSIPSDVVLDEGVLYYSMTINDEQNDIKDEDKGESIITIGEFATVRATRHYVNQDAPFGVIHLDITTENGTKTYSYNRKEGEFAINWLVPIGEDSPASIKISVDELDQQRNIIEVPKLYSIDLDNQTLEQWKTQGNVSFSVTRPEHNIAISWPSVSYKAAQKEGSRHKRWAHWHTGLALCWLVPMDAIYNYITQQNCTLGDNWFGGSYETVAGTPKVITVKQGIEQKPVEQRIHFSKGNAMSALAAHRVCGVPLETLARSRKPRDLTDDLSCAYQAQNIVSLFVATRILFSHLDSVFTLNLDEQEPEVAERLSDLRRINENNPGMVTQVLTVARQIYNDYVTHHPGLTPEQTSAGAQAGGGGSGGGGSGGGGSPGQGTQSENSCTHFPGNLPNMLRDLRDAFSRVKTFFQMKDQLDNLLLKESLLEDFKGYLGCQALSEMIQFYLEEVMPQAENQDPDIKAHVNSLGENLKTLRLRLRRCHRFLPCENKSKAVEQVKNAFNKLQEKGIYKAMSEFDIFINYIEAYMTMKIRN
modifications: homodimer
- earliest time of IL-10 payload transport into the Lamina propria: 1 min
